From patent US20190382462A1, “METHODS AND COMPOSITIONS FOR TREATING HPA HYPERACTIVITY” (priority 2017, published 2019)
Positions count from the first letter of the chain named. In names and notes the source's numbering stands. Like-named read-outs stand apart in the source and are kept apart here. Blank lines part the entries; values can stand above or below the molecule they belong to.

Columns and labels:
CRF [1] = target: T1, CRF (Homo sapiens, UniProt P06850); conditions: cited from earlier work
T1 construct: Biotinylated CRF was immobilized on an avidin-coated ELISA plate
T1 sequence (P06850 154-194 limits assumed): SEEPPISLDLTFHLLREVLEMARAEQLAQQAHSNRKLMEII

[2] = humans; cited from earlier work
Ucn1 = target: T2, Ucn1 (Homo sapiens, UniProt P55089); conditions: cited from earlier work
T2 construct: the related peptide urocortin 1 (Ucn1)
T2 sequence (P55089 83-122 limits assumed): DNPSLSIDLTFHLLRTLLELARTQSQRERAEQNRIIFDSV

r/hCRF = target: T3, r/hCRF (Homo sapiens, UniProt P06850); conditions: cited from earlier work; for loss of affinity for r/hCRF: alanine mutants of CRF-BP
T3 sequence (P06850 154-194 limits assumed): T1 sequence (P06850 154-194 limits assumed)

rUcn 1 = target: T4, rUcn 1 (Rattus norvegicus, UniProt P55090); conditions: cited from earlier work; for loss of affinity for rUcn 1: alanine mutants of CRF-BP
T4 sequence (P55090 81-120 limits assumed): T2 sequence (P55089 83-122 limits assumed) with N2D, S4P

[3] = Single-dose serum pharmacokinetics of CRF-BP-Fc in mice (sandwich ELISA); format: in vivo, mouse; conditions: two doses (15 and 45 μg) in mice
Protocol: (§1) FIG. 2A and FIG. 2B: Serum concentration of CRF-BP-Fc. FIG. 2A: A CRF-BP-Fc fusion protein (SEQ ID NO:16), composed of CRF-BP (25-322) fused to mouse IgG1 Fc was administered to C57B16 mice at 2 doses (15 μg/mouse and 45 μg/mouse). […] FIG. 2B: Freezing in response to mild footshock, a mouse model of stress, was reduced in mice treated with the CRF-BP-Fc fusion protein on the day of treatment (*<0.05 from vehicle-treated mice).
Mice are bled at 1, 6, and 12 hours and at 1, 2, 4, 6, 8, and 12 days post-injection by retro-orbital bleeding. […] The present blood sampling times presuppose a half-life value closer to those reported for human IgG in the mouse.
Concentrations in sera over time of CRF-BP-Fc or CRF-BP-albumin constructs are measured with a sandwich ELISA, which has already been established with a lower limit of detection of 1 ng/ml in serum. This ELISA assay consists of immobilized biotinylated CRF to capture serum CRF-BP-Fc on avidin plates followed by detection with a commercial anti-Fc antibody. This assay is used to monitor the serum concentration of CRF-BP-Fc in preliminary studies. CRF-BP-albumin constructs are detected with the same design using antibodies to albumin and blocking reagents designed for albumin ELISA quantification (e.g., Serum Albumin Sandwich ELISA Kit from LifeSpan BioSciences). […]

C57BL/6J mice = experiment: Shock-induced freezing test (mild footshock stress model); format: in vivo, mouse
Protocol: as §1
SIF is a defensive behavior observed in response to fearful stimuli exposure (163), and it is used to determine the efficacy of the constructs under study (FIG. 1B). Testing takes place in a Mouse NIR Video Fear Conditioning System (Med Associates, St. Albans, Vt.) housed in soundproof boxes. The session consists of a 2-min habituation period followed by three 1.5 mA footshocks lasting 1 sec and separated by 20 sec. Duration of freezing behavior is measured for 15 min. Freezing behavior, i.e., the absence of all voluntary movements except breathing, is measured in all sessions by real-time digital video recordings calibrated to distinguish between subtle movements such as whisker twitch or tail flick and freezing behavior. This test is performed at days 1 and 4 after administration. Before and after footshock, mice are bled as outlined above for determination of serum corticosterone and compound levels. […]

CRF [4] = target: T1, CRF; experiment: CRF binding ELISA (biotinylated CRF on avidin-coated plate); conditions: data not shown
From the text: Biotinylated CRF was immobilized on an avidin-coated ELISA plate. […] OD=optical density.

corticosterone (CORT) = experiment: Serum corticosterone (CORT) under repeated footshock stress; format: in vivo; conditions: single administration 45 μg/mouse, C57Bl6 mice
Protocol: FIG. 3: Administration of a CRF-BP-Fc fusion (SEQ ID NO: 16) delayed the increased in basal serum glucocorticoid levels (“CORT” in pg/mL×1000), resulting from repeated stress. Repeated delivery of footshock to mice (dotted vertical lines indicate times for delivery of footshock) results in elevated baseline serum corticosterone (CORT) level in C57B16 mice (black circles), indicative of a chronic stress state. A single administration of CRF-BP-Fc fusion protein at a dose of 45 μg/mouse delayed such increase of baseline serum CORT (black squares). O=vehicle-treated mice; 45=CRF-BP-Fc-treated mice at 45 μg/mouse; *=p<0.05 from […]; CORT: plasma corticosterone levels (ng/ml).
CRFBP-Fc fusion protein was administered to C57B16 mice at a dose of 300 μg/mouse. Data points represent CORT concentration before and after injection of CRFBP-Fc containing IgG2-derived Fc (drug) and at 3 time points preceding repeated footshocks (FS). […] 3 hr after injection compared to vehicle group (**p<0.01, Fisher's LSD).
Stimulated CORT concentrations after injection of CRFBP-Fc containing IgG2-derived Fc and at 3 time points after repeated footshocks (FS). […] 3 hr after injection, FS1, and FS2 compared to vehicle group, respectively (*p<0.05, ****p<0.0001, Fisher's LSD). […]

B1: CRF-BP: binding protein that specifically binds to CRF (protein, UniProt P24387 25-322, looked up)
Corticotropin-releasing …: YLELREAADYDPFLLFSANLKRELAGEQPYRRALRCLDMLSLQGQFTFTADRPQLHCAAFFISEPEEFITIHYDQVSIDCQGGDFLKVFDGWILKGEKFPSSQDHPLPSAERYIDFCESGLSRRSIRSSQNVAMIFFRVHEPGNGFTLTIKTDPNLFPCNVISQTPNGKFTLVVPHQHRNCSFSIIYPVVIKISDLTLGHVNGLQLKKSSAGCEGIGDFVELLGGTGLDPSKMTPLADLCYPFHGPAQMKVGCDNTVVRMVSSGKHVNRVTFEYRQLEPYELENPNGNSIGEFCLSGL
Kd (CRF [1]; range printed without naming the ligand, read-out: KD (high affinity of CRF-BP)): 0.1 to 0.2 nM | Kd (CRF [1]; read-out: KD for CRF): 0.2 nM | plasma half-life [2]: minutes | Kd (Ucn1): 0.1 nM

B2: CRF-BPC277A/C318A: CRF-BP derivative lacking the cysteines of the fifth disulfide bridge (C277/C318) (protein, UniProt P24387 25-322, looked up, variant C277A C318A)
Corticotropin-releasing …: B1 Corticotropin-releasing … with C253A, C294A
affinity for r/hCRF compared with WT CRF-BP (r/hCRF): indistinguishable from that of WT CRF-BP | affinity for rUcn 1 compared with WT CRF-BP (rUcn 1): indistinguishable from that of WT CRF-BP

B3: L61A: CRF-BP alanine mutant (protein, UniProt P24387 25-322, looked up, variant L61A)
Corticotropin-releasing …: B1 Corticotropin-releasing … with L37A
loss of affinity for r/hCRF (r/hCRF): partial | loss of affinity for rUcn 1 (rUcn 1): partial

B4: Y211A: CRF-BP alanine mutant (protein, UniProt P24387 25-322, looked up, variant Y211A)
Corticotropin-releasing …: B1 Corticotropin-releasing … with Y187A
loss of affinity for r/hCRF (r/hCRF): complete | loss of affinity for rUcn 1 (rUcn 1): complete

B5: E121A: CRF-BP alanine mutant (protein, UniProt P24387 25-322, looked up, variant E121A)
Corticotropin-releasing …: B1 Corticotropin-releasing … with E97A
loss of affinity for r/hCRF (r/hCRF): partial | loss of affinity for rUcn 1 (rUcn 1): partial

B6: W116A: CRF-BP alanine mutant (protein, UniProt P24387 25-322, looked up, variant W116A)
Corticotropin-releasing …: B1 Corticotropin-releasing … with W92A
loss of affinity for r/hCRF (r/hCRF): complete | loss of affinity for rUcn 1 (rUcn 1): complete

B7: Q188A: CRF-BP alanine mutant (protein, UniProt P24387 25-322, looked up, variant Q188A)
Corticotropin-releasing …: B1 Corticotropin-releasing … with Q164A
loss of affinity for r/hCRF (r/hCRF): partial | loss of affinity for rUcn 1 (rUcn 1): partial

B8: F123A: CRF-BP alanine mutant (protein, UniProt P24387 25-322, looked up, variant F123A)
Corticotropin-releasing …: B1 Corticotropin-releasing … with F99A
loss of affinity for r/hCRF (r/hCRF): partial | loss of affinity for rUcn 1 (rUcn 1): partial

B9: CRFBPC237A/C264A: CRF-BP derivative lacking the cysteines of the fourth disulfide bridge (C237/C264) (protein, UniProt P24387 25-322, looked up, variant C237A C264A)
Corticotropin-releasing …: B1 Corticotropin-releasing … with C213A, C240A
affinity for r/hCRF compared with WT CRF-BP (r/hCRF): indistinguishable from that of WT CRF-BP | affinity for rUcn 1 compared with WT CRF-BP (rUcn 1): indistinguishable from that of WT CRF-BP

effect of fusion to mouse IgG1 Fc on CRF binding (CRF [4]): did not alter CRF binding
B10: CRF-BP-Fc (SEQ ID NO:16): fusion protein composed of CRF-BP (25-322) fused to mouse IgG1 Fc (protein, listed as Mus musculus)
chain: MSPNFKLQCHFILIFLTALRGESRYLELREAADYDPFLLFSANLKRELAGEQPYRRALRCLDMLSLQGQFTFTADRPQLHCAAFFISEPEEFITIHYDQVSIDCQGGDFLKVFDGWILKGEKFPSSQDHPLPSAERYIDFCESGLSRRSIRSSQNVAMIFFRVHEPGNGFTLTIKTDPNLFPCNVISQTPNGKFTLVVPHQHRNCSFSIIYPVVIKISDLTLGHVNGLQLKKSSAGCEGIGDFVELLGGTGLDPSKMTPLADLCYPFHGPAQMKVGCDNTVVRMVSSGKHVNRVTFEYRQLEPYELENPNGNSIGEFCLSGLTGGCKPCICTVPEVSSVFIFPPKPKDVLTITLTPKVTCVVVDISKDDPEVQFSWFVDDVEVHTAQTQPREEQFNSTFRSVSELPIMHQDWLNGKEFKCRVNSAAFPAPIEKTISKTKGRPKAPQVYTIPPPKEQMAKDKVSLTCMITDFFPEDITVEWQWNGQPAENYKNTQPIMDTDGSYFVYSKLNVQKSNWEAGNTFTCSVLHEGLHNHHTEKSLSHSPGK
pharmacokinetic profile from serum concentrations [3]: linear pharmacokinetics with a biexponential profile | circulating serum concentrations effective in reducing behavioral responses to stress (C57BL/6J mice; mice): 1 to 3 µg/mL | freezing in response to mild footshock (C57BL/6J mice; single administration, day of treatment, vs vehicle-treated mice): reduced | increase in basal serum glucocorticoid (CORT) levels resulting from repeated stress (corticosterone (CORT)): delayed
